This series in a line: yeast display, Sf9 membrane polyspecificity reagent, FACS + sequencing; frameworks hold sequencing errors. Put shortly: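 Galactose-induced (36–48 hours) yeast carrying a synthetic nanobody display library were exposed to 10% biotinylated, detergent-solubilized Sf9 membrane reagent at 4 °C for 1 hour. FACS followed streptavidin microbead enrichment, using low and high (top ~1%) gates for expression (anti-HA) and reagent binding (streptavidin). Colony PCR, MiSeq 2 × 250 sequencing and CDR-length filtering followed. Labels for polyreactivity reflect the gate of origin.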
Consider “QVQLVESGGGLVQAGGSLRLSCAASGLTFVFYAMGWYRQSPGNERELVAAISWSTGRTYYADSVKGRFTISRDNAKNTVYLQMNSLKPEDTAVFYCGASFLGRKYDYWGHGTQVTVSS”, for which the “polyreactivity (PSR sort gate)” value is reported as “high polyreactivity”.

With “QVQLVESGGGLVQAGGSLRLSCAASGLTFVGNAMGWYRQAPGKERELVAAISRSGGRTYYADSVKGRFTISRDNAKNTVYLQMNSLKPEDTAVYYCAAPYRSYDWYDYWGQGTQVTVSS”, the “polyreactivity (PSR sort gate)” value was “high polyreactivity”. As to “QVQLVESGGGLVQAGGSLRLSCAASGLTFVHYAMGWYRQAPGKQRDLVAAISSGGGSTYYADSVKGRFTISRDNAKNTVYLQMNSLKPEDTAVYYCNVYDHYYSFYSSRDNDYWGQGTQVTVSS”, the “polyreactivity (PSR sort gate)” value is given as “low polyreactivity”. For “QVQLVESGGGLVQAGGSLRLSCAASGLTFVPNAMGWYRQAPGKERELVAAISNNGGRTYYADSVKGRFTISRDNAKNNVYLQMNSLKPEDTAVYYCAKYLSPGERHSYDYWGQGTQVTLSS” the value was “high polyreactivity”; for “QVQLVESGGGLVQAGGSLRLSCAASGLTFVQNAMGWYRQAPGKERELVAAISTSGGSTYYADSVKGRFTISRDNAKNTVYLQMNSLKPEDTAVYYCAAYPRSWWRGYDYWGQGTQVTVSS”, “high polyreactivity”. The result for “QVQLVESGGGLVQAGGSLRLSCAASGLTFVRYAMGWYRQAPGKERELVAVISYSGARTYYADSVKGRFTISRDNAKNTVYLQMNSLKPEDTAVYYCAATFRGTFRRIWTDTRAYDYWGQGTQVTVSS” reads “high polyreactivity”. The result for “QVQLVESGGGLVQAGGSLRLSCAASGLTFVTYVMGWYRQAPGKERELVAAISYSGGSTYYADSVKGRFTISRDNAKNTVYLQMISLKPEDTAVYYCAAEWYGYQEDDYWGQGTQVTVSS” reads “low polyreactivity”. Turning to “QVQLVESGGGLVQAGGSLRLSCAASGLTFVYNTMGWYSQAPGKERELVAAISSSGGTTYYADSVKGRFTISRDTAKNTVYLQMNSLKPEDTAVYYCAARPSGGYESTRTRDYWGQGTHVTVSS”, the “polyreactivity (PSR sort gate)” value is listed as “low polyreactivity”.

Take “QVQLVESGGGLVQAGGSLRLSCAASGLTFVYYAMGWSRPAPGKERELVAAISRGGTTYYADSVKGRFTISRDNAKNTVYLQMNSLKPEDTAVYYCARVGRYRYEWGQGTQVTVSS”: the “polyreactivity (PSR sort gate)” value is given as “high polyreactivity”. Consider “QVQLVESGGGLVQAGGSLRLSCAASGLTFVYYTMGWYRQAPGKERELVAAISGSGDNTYYADSVKGRFTISRDNAKNTVYLQMNSLKPEDTAVYYCAADKSYYYYLFGYDYWGQGTQVTVSS”, for which the “polyreactivity (PSR sort gate)” value was “low polyreactivity”. Turning to “QVQLVESGGGLVQAGGSLRLSCAASGLTFVYYTMGWYRQAPGKERELVAGINSGGSTYYADSVKGRFTISRDNAKNTVFLQMNSLKPEDTAVYYCAAVQRGYRRFRRIYDYWGQGTQVTVSS”, the “polyreactivity (PSR sort gate)” value is on record as “high polyreactivity”. In the case of “QVQLVESGGGLVQAGGSLRLSCAASGLTFWGNAMGWYRQAPGKEREFVAGIDRSSVSTYADSVKGRFTISRDNAKNTVYLQMNSLKPEDTAVYYCAVDEYGIWVGWVPYATFGMNYWGQGTQVTVSS”, the “polyreactivity (PSR sort gate)” value is listed as “high polyreactivity”.

With “QVQLVESGGGLVQAGGSLRLSCAASGLTFWGNTMGWYRQAPGKERELVAAISSGGITYYADSVKGRFTISRDNANNTVYLLMNSLKPEETAVYYCIGVFSFVPHEMDYWGLGTQVTVSS”, the “polyreactivity (PSR sort gate)” value was “high polyreactivity”. “QVQLVESGGGLVQAGGSLRLSCAASGLTFWGYAMGWYRQAPGKEREFVASISSGGGSTYYADSVKGRFTISRDNAKNTVYLQMNSLKPEDTAVYYCNVDVHLYLYKSYTYRYYYWGQGTQVTVSS”: the “polyreactivity (PSR sort gate)” value is “low polyreactivity”. For “QVQLVESGGGLVQAGGSLRLSCAASGLTFWRYTMGWYRHAPGKERELVATIRRGTSTNYADSVKGRFTISRDNAKNTVYLQMNSLKPEDTAVYYCAAVPWRYYVEYDYWGQGTQVTVSS” the value was “high polyreactivity”.

On to “QVQLVESGGGLVQAGGSLRLSCAASGLTFWRYTMGWYRPAPGKERELVAVITYRGGSTYYADSVKGRFTISRDNAKNTVYLQMNSLKPEDTAVYYCDAGRRTYGLTYDYWGQGTQVTVSS”, for which the “polyreactivity (PSR sort gate)” value is recorded as “high polyreactivity”.

For “QVQLVESGGGLVQAGGSLRLSCAASGLTFWTNTMGWSRQAPGKERELVATISSGGGTYYADSVKGRFTISRDNAKNTVYLQMNSLKPEDTAVYYCAAKRKRYFVGYYYWGQGTQVTVSS”, the “polyreactivity (PSR sort gate)” value is “low polyreactivity”. The result for “QVQLVESGGGLVQAGGSLRLSCAASGLTFWYYAMGWYRQAPGKERELVAAISFSGGRTYYADSVKGRFTISRDNAKYTVYLQMNSLKPEDTAVYYCNKATWYPFWYAPSYDYWGQGTQVTVSS” reads “high polyreactivity”; that for “QVQLVESGGGLVQAGGSLRLSCAASGLTFYEDVLGWYRQAPGKERELVAAISYSGGRTYYADSVQGRFTISRDNAKNTVYLQMNSLKPEDTAVYYSAAQSRYAGKFYYWGQGTQVTVSS”, “high polyreactivity”; that for “QVQLVESGGGLVQAGGSLRLSCAASGLTFYGNAMGWYIQAPGKERELVAAISSRGGRTYYADSVKGRFTISRDNAKNTVYLQMNSLKPEDTAVYYCNDRYKYPDMDYWGQGTQVTVSS”, “high polyreactivity”. For “QVQLVESGGGLVQAGGSLRLSCAASGLTFYGNAMGWYRQAPGKERELVAAISRGGRTYYADSVKGRFTISRDNAKNTVYLQMNSLKPEDTAVYYCATVVSRGKQPFDMDYWGQGTQVTVSS” the value was “low polyreactivity”; for “QVQLVESGGGLVQAGGSLRLSCAASGLTFYGYTMGWYRQAPGKERELVADISISGGSTRYADSVKGRFTISRDNAKNTVYLQMNSLKPEDTAVYYCARDDIYYSNIYDYWGQGTQVTVSS”, “low polyreactivity”; for “QVQLVESGGGLVQAGGSLRLSCAASGLTFYGYVMGWYRQAPGKERELVASISRSGGRTYYADSVKGRFTISRDNAKNTVYLQMNSLKPEDTAVYYCAAADQVGQEDDYWGQGTQVTVSS”, “low polyreactivity”. The result for “QVQLVESGGGLVQAGGSLRLSCAASGLTFYKNAMGWYRQPPGKERELGAVISSSGGSTYYADSVKGRFTISRDNAKNTVYLQMKSLKPEDTAVYYSARDLYTEYRWGRLTYDYWGQGTQVTVSS” reads “low polyreactivity”; that for “QVQLVESGGGLVQAGGSLRLSCAASGLTFYPNAMGWYRPAPGKEREFVASISISGRTYYADSVKGRFTISRDNAKNTVYLQMNSLKPEDTAVYYCAARYVRSGLYRKYDYWGQGTQVTVSS”, “high polyreactivity”.

With “QVQLVESGGGLVQAGGSLRLSCAASGLTFYQYAMGWYRQAPGKERELVAAISKSAGSTYYADSVKGSFTISRDNAKNTVYLQMNSLKPEDTAVYFCAARVLRLRYDYWGQGTQVTVSS”, the “polyreactivity (PSR sort gate)” value was “high polyreactivity”.

In the case of “QVQLVESGGGLVQAGGSLRLSCAASGLTFYQYAMGWYRQAPGKERELVAGISSGGSTKYADSVKGRFTISRDNAKNTVYLQMNSLKPEDTAVYYCAARFCAFRKGYYYWGQGTQVTVSS”, the “polyreactivity (PSR sort gate)” value is recorded as “high polyreactivity”. The result for “QVQLVESGGGLVQAGGSLRLSCAASGLTFYQYTMGWYRQAPGKERELVAAISRRGGSTYYADSVKGRFTISRDNAKNTVYLQMNSLKPEDTAVYYCAARALRYSSDFDYWGQGTQVTVSS” reads “high polyreactivity”; that for “QVQLVESGGGLVQAGGSLRLSCAASGLTFYRYAMGWYRQAPGKEMELVAAIRVSGNTYYADSVKGPFTISRDNAKNTVYLEMNCLKPEDTAVYYCAAKPYYFYGMDYWGQGTQVTVSS”, “high polyreactivity”; that for “QVQLVESGGGLVQAGGSLRLSCAASGLTFYRYAMGWYRQAPGKERELVAAIRSNVVTTYYADSVKGRFTISRDNAKNTVYLQMNSLKPEDTAVYYCNAVSYSFPIHRVRPTWYDYWGQGTQVTVSS”, “high polyreactivity”.

Regarding “QVQLVESGGGLVQAGGSLRLSCAASGLTFYRYAMGWYRQSPGKERELVAAISRGGTSTYYADSVKGRFTISRDNAKNTVYLQMSSLKPEDTAVYYCARLVKPYNYGRYGYWGQGTQVTVSS”, the “polyreactivity (PSR sort gate)” value is reported as “high polyreactivity”. Regarding “QVQLVESGGGLVQAGGSLRLSCAASGLTFYSNAMGWYIQAPGKERELVASISKRGATTYYADSVKGRFTISRDIAKYTVYLQMNSQKAEDTAVYYCAAEYLRNQELGYQGVAILYVFWGQGTQVTVSS”, the “polyreactivity (PSR sort gate)” value was “low polyreactivity”.

Consider “QVQLVESGGGLVQAGGSLRLSCAASGLTFYSNAMGWYRQAPGKERELVAAITWRSVRTYYADSVKGRFTISRDNAKNTVYLQMNSLKPEDTAVYYCAAASASRHGEYDYWGQGTQVTVSS”, for which the “polyreactivity (PSR sort gate)” value is on record as “low polyreactivity”. For “QVQLVESGGGLVQAGGSLRLSCAASGLTFYSNAMGWYRQAPGKERELVASISNGGSTNYADSVKGRFTISRDNAKNTVYLQMNSLKPEDTAVYYCAAEYSLRHRRYTFFAEMDYWGQGTQVTVSS” the value was “low polyreactivity”; for “QVQLVESGGGLVQAGGSLRLSCAASGLTFYSYAMGWYRQAPGKERELVAAISNTGGTNYADSVKGRFTISRDNAKNNVYFQMTSLKPEDTAVYYCNRTFYHYLYRGYGYWGQGTQVTVSS”, “low polyreactivity”; for “QVQLVESGGGLVQAGGSLRLSCAASGLTFYVYAMGWYRQAPGKERELVAAISSGGRTYYADSVKGRFTISRDNAKNTVYLQMNSLKPEDTAVYYCAARSPVWRTTEDYWGQGTQVTVSS”, “high polyreactivity”. With “QVQLVESGGGLVQAGGSLRLSCAASGLTFYYYAMGWYRQAPGKERELVAAISIGGSTDYADSVKGRFTISRDNAKNTVYLQMNSLKPEDTAVYYCNVDDNSEYDYWGQVTQVTVSS”, the “polyreactivity (PSR sort gate)” value is “low polyreactivity”. On to “QVQLVESGGGLVQAGGSLRLSCAASGLTFYYYAMGWYRQAPGKERELVAAITWSGASTYYADSVKGRFTISRDNAKNTVYLQMNSLKPEDTAVYYCNARVWGGVEFGYWGQGTQVTVSS”, for which the “polyreactivity (PSR sort gate)” value was “high polyreactivity”.

Consider “QVQLVESGGGLVQAGGSLRLSCAASGLTFYYYAMGWYRQAPGKERELVATISSGGNTNYADSVKGRFTISRDNAMNTVYLQMNSLKPEDTAVYYCNADRWFHYYRYNYWGQGTQVTVSS”, for which the “polyreactivity (PSR sort gate)” value was “high polyreactivity”. For “QVQLVESGGGLVQAGGSLRLSCAASGLTFYYYVMGWYRQAPGKERELVAAISSSGGNTYYADSVKGRFTISRDNEKNTVYLQMNSLKPEDTAVYYCAAGQKRTLDNYWGQGTQVTVSS” the value was “high polyreactivity”; for “QVQLVESGGGLVQAGGSLRLSCAASGLTIAYYDMGWYRPAPGKERELVARISRGGSTNYADSVKGRFTISRDNAKNTVYLQMNSLKPEDTAVYYCNTGYVYPYKILMDYWGQGTQVTVSS”, “low polyreactivity”.

The values are drawn from the nanobody polyreactivity screen of Harvey et al. (2022).
